According to paper PMC12270679 (2025):

Biological target: Unp-CTD (Saccharomyces cerevisiae, synthetic peptide, N-terminal FAM label, unphosphorylated; consensus RNAPII Rpb1 CTD heptad x3)
Assay: FP; unphosphorylated CTD peptide

Kd: 4.06 mM
B1: MBP-Asr1 (natural protein)
chain: MEECPICLADDQEGEQFGCLNVCGHKFHLNCIREWHKYSINLKCPICRVESTHLEVGEGQHALSINLKMGFMIKNAIDYVGAETTNERNEDDTGEQDQEIEFLSERLRGTLVMDTIKIIQCSICGDTDVSRLSLYCQDCEAIYHETCLRGLACEVGDRNTWQECTDCRSNALLELRMGAISSQLASYDSRNSMIFAGELRDKHSVKTQQMYEQIRNAKHKIQMHVRRALDRYPLPLLRFKDAYKHVNKQVSRKLYRLSDNKYLPDQYDYDSLARTGVHTELLIYCHDE
